{
  "source": "patent US20060263345A1",
  "about": "“Butyrylcholinesterase variant polypeptides with increased catalytic efficiency and methods of use” (priority 2003, published 2006)",
  "molecules": {"B1": {"name": "A328Y (protein, UniProt P06276 29-602, looked up, variant A328Y)", "Cholinesterase": "EDDIIIATKNGKVRGMNLTVFGGTVTAFLGIPYAQPPLGRLRFKKPQSLTKWSDIWNATKYANSCCQNIDQSFPGFHGSEMWNPNTDLSEDCLYLNVWIPAPKPKNATVLIWIYGGGFQTGTSSLHVYDGKFLARVERVIVVSMNYRVGALGFLALPGNPEAPGNMGLFDQQLALQWVQKNIAAFGGNPKSVTLFGESAGAASVSLHLLSPGSHSLFTRAILQSGSFNAPWAVTSLYEARNRTLNLAKLTGCSRENETEIIKCLRNKDPQEILLNEAFVVPYGTPLSVNFGPTVDGDFLTDMPDILLELGQFKKTQILVGVNKDEGTYFLVYGAPGFSKDNNSIITRKEFQEGLKIFFPGVSEFGKESILFHYTDWVDDQRPENYREALGDVVGDYNFICPALEFTKKFSEWGNNAFFYYFEHRSSKLPWPEWMGVMHGYEIEFVFGLPLERRDNYTKAEEILSRSIVKRWANFAKYGNPNETQNNSTSWPVFKSTEQKYLTLNTESTRIMTKLRAQQCRFWTSFFPKVLEMTGNIDEAEWEWKAGFHRWNNYMMDWKNQFNDYTSKKESCVGL"}, "B2": {"name": "A328W/Y332M/S287G/F227A (protein)", "chain": "B1 Cholinesterase with F227A, S287G, Y328W, Y332M", "modifications": "Butyrylcholinesterase variant"}},
  "key": {"Sprague Dawley rats": {"system": "Sprague Dawley rats", "assay": "pilot studies, lethal dose of infused cocaine", "conditions": "rat, i.v. infusion", "protocol": "(§1) Briefly, unilateral/bilateral jugular cannulations were performed under isoflurane anesthesia (max. 20 min) on 350 g male :Sprague Dawley®SD® rats (Harlan Sprague Dawley, Inc.) The animals were allowed to recover for 24 hours before studies commenced. […] One minute later, the cannula was connected to an infusion pump (Harvard Apparatus) and cocaine (HCI salt) was infused at 6 mls/hr (2 mg/kg/min) for 15 minutes corresponding to a total dose equal to 30 mg/kg. The time-to-onset for slight convulsions, strong convulsions and death were recorded. […] In a second series of studies, 0.5 mg/kg of the A328W/Y332M/S287G/F227A variant was administered at various time points after initiation of the 30mglkg cocaine infusion and gross observations recorded."}, "cocaine toxicity": {"system": "cocaine toxicity", "conditions": "rat, infusion of cocaine at 1 mg/kg/min, catecholamine levels standardized; cited from earlier work"}, "[1]": {"assay": "Km for cocaine hydrolysis by horse butyrylcholinesterase, isotope tracer assay, Lineweaver-Burk plot", "format": "biochemical", "conditions": "2 hour incubation at 37° C.; x intercept = -1/Km", "source_text": "At the conclusion of the isotope tracer assay, an aliquot of the reaction mix is acidified in order to take advantage of the solubility difference between the product and the substrate at pH 3.0. […] Prospect, Ill.) while [3H]-cocaine is not."}, "[2]": {"conditions": "read-out: Km for cocaine hydrolysis, previously published, cited from earlier work"}, "[3]": {"conditions": "cited from earlier work"}, "[4]": {"assay": "microtiter isotope tracer [3H]-cocaine hydrolysis assay of immobilized butyrylcholinesterase variants", "format": "biochemical", "conditions": "compared to human butyrylcholinesterase SEQ ID NO: 44; approximate values"}, "cocaine-induced toxicity": {"system": "cocaine-induced toxicity", "assay": "in vivo cocaine toxicity, cocaine infusion 30 mg/kg in cannulated rats", "conditions": "rat; for effect of therapeutic treatment on cocaine-induced toxicity: FIG. 9; for effect of pre-treatment on cocaine-induced toxicity: i.v. 0.1-0.5 mg/kg, 1 minute before cocaine 2 mg/kg/min for 15 minutes, Chi-squared test p<0.001, FIG. 8", "protocol": "as §1\nThe variant was administered at the indicated doses, 1 minute prior to infusion of 30 mg/kg cocaine (2 mg/kg/min for 15 minutes)."}},
  "note": "Changes are numbered by the printed parent chain. Numbers in names are those of the source. Entries after “also recorded” stand apart in the source; their conditions may differ. Where two headings read alike, the source gives them in different places.",
  "data": [
    {"molecule": "COC(=O)[C@H]1[C@@H](OC(=O)c2ccccc2)C[C@@H]2CC[C@H]1N2C", "note": "[cocaine]", "values": [
      {"measurement": "lethal dose of cocaine", "setting": "Sprague Dawley rats", "value": "approximately 25 mg/kg"},
      {"measurement": "LD50", "setting": "cocaine toxicity", "value": 10, "unit": "mg/kg"},
      {"measurement": "LD90", "setting": "cocaine toxicity", "value": 16, "unit": "mg/kg"}
    ]},
    {"molecule": "horse butyrylcholinesterase", "values": [
      {"measurement": "Km", "setting": "[1]", "value": "~37.6", "unit": "µM"},
      {"measurement": "Km", "setting": "[2]; Gatley 1991", "value": 38, "unit": "µM"},
      {"measurement": "Km", "setting": "[2]; Xie et al. 1999", "value": "45 ± 5", "unit": "µM"}
    ]},
    {"molecule": "B1", "values": [
      {"measurement": "increase in cocaine hydrolysis activity compared to human butyrylcholinesterase", "setting": "[3]; Xie et al. 1999", "value": "four"},
      {"measurement": "cocaine hydrolysis activity (in words)", "setting": "[3]; recombinantly prepared mutations tested previously", "value": "increased cocaine hydrolysis activity"}
    ]},
    {"molecule": "B2", "values": [
      {"measurement": "increase in cocaine hydrolysis activity relative to butyrylcholinesterase", "setting": "[4]", "value": "one-hundred"},
      {"measurement": "effect of therapeutic treatment on cocaine-induced toxicity", "setting": "cocaine-induced toxicity; 0.5 mg/kg administered at 8 minutes into the 30 mg/kg cocaine infusion (after first slight convulsions)", "value": "full protection"},
      {"measurement": "effect of therapeutic treatment on cocaine-induced toxicity", "setting": "cocaine-induced toxicity; 0.5 mg/kg administered at later time points than 8 minutes, 0.5 mg/kg", "value": "decreased in ability to protect"},
      {"measurement": "effect of therapeutic treatment on cocaine-induced toxicity", "setting": "cocaine-induced toxicity; 0.5 mg/kg administered at later time points than 8 minutes, listed as AME-359, 0.5 mg/kg", "value": "decreased in ability to protect"},
      {"measurement": "effect of pre-treatment on cocaine-induced toxicity", "setting": "cocaine-induced toxicity", "value": "decreasing cocaine-toxicity; also recorded: statistically significant protection against cocaine"},
      {"measurement": "effect of pre-treatment on cocaine-induced toxicity", "setting": "cocaine-induced toxicity; listed as AME-359", "value": "statistically significant protection against cocaine"},
      {"measurement": "time-of-onset of symptoms associated with cocaine-induced toxicity", "setting": "cocaine-induced toxicity; pre-treatment 1 minute before 30 mg/kg cocaine infusion, FIG. 12", "value": "delaying the time-of-onset of symptoms"}
    ]}
  ]
}
